According to US20180282426A1 (NOVIMMUNE S A, published 2018):

Legend:
[1] = target: T1, recombinant soluble MD-2 purified from baculovirus-infected insect cell supernatants (UniProt Q9Y6Y9 19-160); test: direct ELISA, MD-2 coated at 5 ug/ml
T1 construct: Expressed in Sf9 cells, purified on NiNTA, coated at 5 ug/ml in the direct ELISA; not shown: C-terminal FLAG and 6xHIS tags
T1 sequence (looked up): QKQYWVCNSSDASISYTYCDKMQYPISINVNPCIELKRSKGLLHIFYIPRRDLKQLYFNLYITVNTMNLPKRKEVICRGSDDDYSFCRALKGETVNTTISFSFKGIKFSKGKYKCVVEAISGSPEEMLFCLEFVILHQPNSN
Procedure: Recombinant soluble MD-2 with C terminal FLAG and histidine epitope tags was coated at a concentration of 5 μg/ml in 50 μl PBS on ELISA plates (Nunc Maxisorp). Wells were blocked with 200 μl PBS 2% BSA and subsequently incubated with the appropriate MAb at the indicated concentration in PBS 1% BSA. Following 3 wash steps with PBS 0.05% Tween 20, 50 μl HRP conjugated goat anti-mouse IgG (H+L) at a 1:5000 dilution was added to the wells. […] Plates were read at a wavelength of 650 nm.
Using direct ELISA, no binding of 18H10 to recombinant soluble MD-2 generated with the baculovirus expression system was detected (FIG. 5a).

[2] = target: T2, human TLR4 and human MD-2 on transiently transfected HEK 293 cells (human, UniProt O00206 24-839; Q9Y6Y9 19-160); test: FACS on transiently transfected HEK 293 cells
T2 construct: whole, on cells; also called human TLR4/MD-2 complex
Procedure: FIGS. 4A-4L are a series of graphs depicting the specificity of the 18H10 monoclonal antibody for MD-2. The specificity of the 18H10 antibody is shown by flow cytometry analysis of HEK 293 cells transiently transfected with either human TLR4 and human MD-2 (FIG. 4A, FIG. 4E and FIG. 4I); rabbit TLR4 and rabbit MD-2 (FIG. 4B, FIG. 4F and FIG. 4J); human TLR4 and rabbit MD-2 (FIG. 4C, FIG. 4G and FIG. 4K); or rabbit TLR4 and human MD-2 (FIG. 4D, FIG. 4H and FIG. 4L). Cells were incubated with either α-FLAG™ antibody (to detect TLR4 expression); α-C-myc antibody (to detect MD-2 expression) or the 18H10 monoclonal antibody, followed by an APC-coupled α-mouse (H+L) antibody.
FIGS. 12A-12L is a series of graphs depicting the specificity of the 16G7 monoclonal antibody for TLR4. […]
HEK 293 cells were plated in 6 well plates at a density of 2.5×10⁵ cells/well in 2 ml culture medium containing 10% FBS. […] 48 hours post-transfection, cells were stained with the appropriate monoclonal antibody (as indicated in FIGS. 4A-4L) and an APC-coupled goat anti-mouse IgG (H+L) antibody (Molecular Probes) and analyzed using the FACScalibur in the FL-4 channel.

[3] = target: T3, human TLR4 alone in transfected HEK 293 cells (human, UniProt O00206 24-839); test: sandwich ELISA, capture on anti-FLAG M2, biotinylated 18H10
T3 construct: whole, on cells; also called TLR4 alone in transfected cell lysates
Procedure: (§1) For sample preparation, HEK 293 cells were transfected with the appropriate plasmid constructs using the Fugene 6™ transfection reagent as described in paragraph G above. 48 hours post-transfection, cells were collected and cleared by centrifugation. Cells were subsequently incubated with biotinylated 18H10 (10 μg/ml) and lysed in 20 mM Tris pH 7.4, 150 mM NaCl, 1% NP40 containing COMPLETE™ protease inhibitors (Roche).
(§2) To perform the sandwich ELISA, Nunc maxisorp plate wells were coated with 50 μl of the anti-FLAG™ M2 MAb (Sigma) at a concentration of 5 μg/ml in PBS. Wells were blocked with 200 μl PBS 2% BSA and subsequently incubated with 50 μl of the appropriate samples at the indicated dilution. Wells were washed three times with 200 μl PBS 0.05% Tween 20 and incubated with 50 μl of the appropriate antibody (10 μg/ml for biotinylated 18H10 and 12D4, 1 μg/ml for the polyclonal anti-MD-2 […]). Following a wash step as above, wells were incubated with 50 μl of the appropriate detection antibody (HRP conjugated streptavidin at a dilution of 1:1500 for the biotinylated MAbs and HRP conjugated anti-rabbit IgG (H+L) at a dilution of 1:5000 for the polyclonal rabbit Ab). […] Plates were read at a wavelength of 650 nm.

[4] = target: T4, MD-2 alone in transfected HEK 293 cell lysates/supernatants (UniProt Q9Y6Y9 19-160, limits assumed); test: as above
T4 construct: not shown: C-terminal FLAG and 6x Histidine tags
T4 sequence (looked up): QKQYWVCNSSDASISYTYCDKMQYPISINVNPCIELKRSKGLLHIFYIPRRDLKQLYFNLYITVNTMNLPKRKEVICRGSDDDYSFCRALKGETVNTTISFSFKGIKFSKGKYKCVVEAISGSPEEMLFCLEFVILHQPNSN
Procedure: as §1, §2

[5] = target: T5, human TLR4/MD-2 complex on the surface of transfected CHO cells (human, UniProt O00206 24-839; Q9Y6Y9 19-160); test: flow cytometry, mock transfected vs. TLR4/MD-2 transfected cells
T5 construct: whole, on cells; also called TLR4/MD-2 transfected CHO cells; hTLR4/MD-2 transfected CHO cells

[6] = target: T6, human TLR4/MD-2 complex in transfected HEK 293 cells (FLAG-TLR4 with MD-2-FLAG-6xHis) (human, UniProt O00206 24-839; Q9Y6Y9 19-160); test: sandwich ELISA, capture on anti-FLAG M2, biotinylated 18H10 with streptavidin-HRP
T6 construct: whole, on cells; also called TLR4/MD-2 transfected HEK 293 cells; hTLR4/MD-2 transfected HEK 293 cells
Procedure: as §1, §2

T6 sequence (O00206 24-839, one chain of several): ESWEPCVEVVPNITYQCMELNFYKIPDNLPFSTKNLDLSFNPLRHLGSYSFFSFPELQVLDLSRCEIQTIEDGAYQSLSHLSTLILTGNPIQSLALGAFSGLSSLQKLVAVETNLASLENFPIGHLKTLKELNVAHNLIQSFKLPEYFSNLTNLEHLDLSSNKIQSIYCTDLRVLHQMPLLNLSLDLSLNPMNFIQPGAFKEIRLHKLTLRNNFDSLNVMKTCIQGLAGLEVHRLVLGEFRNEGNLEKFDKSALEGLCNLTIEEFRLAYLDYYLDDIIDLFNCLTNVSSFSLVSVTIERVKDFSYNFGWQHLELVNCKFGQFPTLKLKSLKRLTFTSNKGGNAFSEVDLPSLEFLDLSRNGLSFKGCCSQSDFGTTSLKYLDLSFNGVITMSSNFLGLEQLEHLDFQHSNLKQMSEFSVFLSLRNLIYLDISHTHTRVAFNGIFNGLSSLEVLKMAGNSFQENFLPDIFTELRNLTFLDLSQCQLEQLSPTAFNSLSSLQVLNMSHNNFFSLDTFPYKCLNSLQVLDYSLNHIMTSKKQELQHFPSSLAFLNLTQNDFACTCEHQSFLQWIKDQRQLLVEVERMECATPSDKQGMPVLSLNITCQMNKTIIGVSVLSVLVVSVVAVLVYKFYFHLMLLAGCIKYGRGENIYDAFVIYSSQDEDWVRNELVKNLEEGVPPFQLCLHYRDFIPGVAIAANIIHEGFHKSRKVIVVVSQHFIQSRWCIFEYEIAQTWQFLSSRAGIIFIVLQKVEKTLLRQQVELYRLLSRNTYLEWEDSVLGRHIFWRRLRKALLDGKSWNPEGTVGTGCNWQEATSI
T2 sequence (O00206 24-839, one chain of several): as above
T3 sequence (O00206 24-839): as the sequence (O00206 24-839, one chain of several) above
T5 sequence (O00206 24-839, one chain of several): as above

binding result [1]: no binding | binding result [2]: binds | binding result [5]: binds | binding result [6]: binds
B1: 18H10 monoclonal antibody (antibody, IgG2b, V domains shown)
VH: QVQLQQSGADLVRPGALVKLSCTASGFNIKDSYIHWVKKRPEWGLEWIGWTDPENVNSIYDPRFQGKASITADTSSNTAFLQLTSLTSEDTAVYYCARGYNGVYYAMDYWGQGTTVTVSS
VL: QIVLTQSPSIMSASLGEEITLTCSASSSVIYMHWYQQKSGTSPKLLIYRTYNLASGVPSRFSGSGSGTFYSLTISSVEAEDAADYYCHQWSSFPYTFGGGTKLEIKR
notes: also called 18H10 MAb; 18H10 mouse MAb
binding result [3]: no binding (tested: 10 µg/ml biotinylated 18H10) | binding result [4]: no binding (tested: 10 µg/ml biotinylated 18H10)
